Results from US20140087995A1 (published 2014).
Values belong to the binder of their own block, whether it stands above or below them. Numbered stars: 1 amine (or outer) side, 2 acyl side, 3 side chain; on linkers, the order of the positions; unused ones are H or OH. Bridge positions count the residues as written; N and C are the ends. Side chains are listed from the residue outwards. Ends that are not written are not given here. * marks the point of attachment. C20 diacid = O=C(O)CCCCCCCCCCCCCCCCCCC(=O)*; C18 diacid = O=C(O)CCCCCCCCCCCCCCCCC(=O)*; γGlu = O=C(O)[C@H](CCC(=O)[*:2])N[*:1]; AEEA = NCCOCCOCC(=O)O

Columns and labels:
[1] = biological target: T1, human calcitonin receptor (human, UniProt P30988 25-474); assay: ratio of hCTR IC50 to hAmylin-R IC50 (reference: human amylin receptor)
T1 construct: whole, on cells; Used as cell membranes; also called hCTR; hCT
T1 sequence (looked up): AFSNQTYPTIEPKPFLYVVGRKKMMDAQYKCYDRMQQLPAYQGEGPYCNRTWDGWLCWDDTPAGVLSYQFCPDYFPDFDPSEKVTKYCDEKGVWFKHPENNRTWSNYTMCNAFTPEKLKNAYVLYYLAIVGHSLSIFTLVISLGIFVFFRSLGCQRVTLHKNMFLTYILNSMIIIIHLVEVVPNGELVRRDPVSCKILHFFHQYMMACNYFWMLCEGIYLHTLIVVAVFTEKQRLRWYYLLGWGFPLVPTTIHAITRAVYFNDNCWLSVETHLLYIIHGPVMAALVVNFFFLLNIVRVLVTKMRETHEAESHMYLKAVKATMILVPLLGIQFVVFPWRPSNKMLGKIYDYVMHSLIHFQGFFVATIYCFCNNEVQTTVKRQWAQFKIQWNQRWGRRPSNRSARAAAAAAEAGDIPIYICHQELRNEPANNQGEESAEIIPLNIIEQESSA
Procedure, shortened: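 IC₅₀ values were derived by one-site competition analysis of SPA counts. Cell membranes (35 ng/μL) with SPA beads were incubated with test compounds for 120 min at 25° C in Hepes buffer, pH 7.4, containing CaCl2, MgCl₂, OA and Tween20.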

[2] = biological target: T1, human calcitonin receptor; assay: SPA competition on BHK cell membranes, 125I-calcitonin as radioligand (Assay VII)
Procedure, shortened: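 BHK hCTR membranes 35 ng/μL + SPA beads 0.05 mg/well; buffer 50 mM Hepes pH 7.4, 1 mM CaCl2, 5 mM MgCl₂, 0.1% OA, 0.02% Tween20. 120 min, 25° C., shaking. Scintillation count; IC50 by one-site binding competition.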

[3] = biological target: T2, human calcitonin receptor (human, UniProt P30988 25-474); assay: SPA radioligand competition (125I-calcitonin), membranes of BHK cells with human calcitonin receptor
T2 construct: whole, on cells; also called hCTR; hCT
T2 sequence (looked up): T1 sequence (looked up)
Description: Membranes were prepared in the following way; the cells were rinsed with PBS and incubated with Versene for approximately 5 min before harvesting. The cells were flushed with PBS and the cell-suspension was centrifuged for 5 min at 1000 rpm. Cells were homogenized (Ultrathurrax) in a buffer containing 20 mM Na-HEPES and 10 mM EDTA (pH 7.4) and centrifuged at 20.000 rpm for 15 min. The resulting pellet was resuspended, homogenized and centrifuged (20.000 rpm, 15 min) in a buffer containing 20 mM Na-HEPES and 0.1 mM EDTA (pH 7.4, buffer 2). The resulting pellet was resuspended in buffer 2 and protein concentration was measured (BCA protein Assay, Pierce). The homogenate was kept cold during the whole procedure. The membranes were kept at −80° C. until use. Assay was performed in a 384 well Optiplate (PerkinElmer) in a total volume of 40 ul. Membranes were mixed with SPA beads. Final concentration of membranes 35 ng/μL final and Final concentration of SPA beads was 0.05 mg/well. Test-compounds were dissolved in DMSO and further diluted in assay buffer (50 mM Hepes, pH 7.4, 1 mM CaCl2, 5 mM MgCl₂, 0.1% OA and 0.02% Tween20). […] The final mixture was incubated for 120 min with shaking at 400 rpm at 25° C. prior to centrifugation (1500 rpm, 10 min). Samples were analyzed on TopCounter™ (Packard). The […] was calculated using (one site binding competition analysis) GraphPad Prism5 as a measure of receptor affinity.

[4] = biological target: T2, human calcitonin receptor; assay: ratio of IC50 at human calcitonin receptor to IC50 at human amylin receptor (SPA competition assays)
Description: The resulting pellet was resuspended, homogenized and centrifuged (20.000 rpm, 15 min) in a buffer containing 20 mM Na-HEPES and 0.1 mM EDTA (pH 7.4, buffer 2). The resulting pellet was resuspended in buffer 2 and protein concentration was measured (BCA protein Assay, Pierce). The homogenate was kept cold during the whole procedure. The membranes were kept at −80° C. until use. The assay was performed in a 384 well Optiplate (PerkinElmer) in a total volume of 40 ul. Membranes were mixed with SPA beads. Final concentration of membranes 35 ng/μL final and SPA beads was 0.05 mg/well. Test-compounds were dissolved in DMSO and further diluted in assay buffer (50 mM Hepes, pH 7.4, 1 mM CaCl2, 5 mM MgCl₂, 0.1% OA and 0.02% Tween20). […] The final mixture was incubated with shaking at 400 rpm for 120 min at 25° C. prior to centrifugation (1500 rpm, 10 min). Samples were analyzed on TopCounter™ (Packard). The IC₅₀ was calculated using (one site binding competition analysis) GraphPad Prism5 as a measure of receptor affinity.
Membranes were prepared in the following way; the cells were rinsed with PBS and incubated with Versene for approximately 5 min before harvesting. The cells were flushed with PBS and the cell-suspension was centrifuged for 5 min at 1000 rpm. Cells were homogenized (Ultrathurrax) in a buffer containing 20 mM Na-HEPES and 10 mM EDTA (pH 7.4) and centrifuged at 20.000 rpm for 15 min. The resulting pellet was resuspended, homogenized and centrifuged (20.000 rpm, 15 min) in a buffer containing 20 mM Na-HEPES and 0.1 mM EDTA (pH 7.4, buffer 2). The resulting pellet was resuspended in buffer 2 and protein concentration was measured (BCA protein Assay, Pierce). The homogenate was kept cold during the whole procedure. The membranes were kept at −80° C. until use. Assay was performed in a 384 well Optiplate (PerkinElmer) in a total volume of 40 ul. Membranes were mixed with SPA beads.

B1: N^ε1-[(4S)-4-carboxy-4-(17-carboxyheptadecanoylamino)butanoyl]-[Arg17,Pro21,Pro27,His34]-h-amylin (peptide)
peptide: K([γGlu-C18 diacid])CNTATCATQRLANFLRHSSPNFGAIPSSTNVGHNTY-NH2
modifications: disulfide 2-7; N-terminus assumed
SMILES: CC[C@H](C)[C@H](NC(=O)[C@H](C)NC(=O)CNC(=O)[C@H](Cc1ccccc1)NC(=O)[C@H](CC(N)=O)NC(=O)[C@@H]1CCCN1C(=O)[C@H](CO)NC(=O)[C@H](CO)NC(=O)[C@H](Cc1c[nH]cn1)NC(=O)[C@H](CCCNC(=N)N)NC(=O)[C@H](CC(C)C)NC(=O)[C@H](Cc1ccccc1)NC(=O)[C@H](CC(N)=O)NC(=O)[C@H](C)NC(=O)[C@H](CC(C)C)NC(=O)[C@H](CCCNC(=N)N)NC(=O)[C@H](CCC(N)=O)NC(=O)[C@@H](NC(=O)[C@H](C)NC(=O)[C@@H]1CSSC[C@H](NC(=O)[C@@H](N)CCCCNC(=O)CC[C@H](NC(=O)CCCCCCCCCCCCCCCCC(=O)O)C(=O)O)C(=O)N[C@@H](CC(N)=O)C(=O)N[C@@H]([C@@H](C)O)C(=O)N[C@@H](C)C(=O)N[C@@H]([C@@H](C)O)C(=O)N1)[C@@H](C)O)C(=O)N1CCC[C@H]1C(=O)N[C@@H](CO)C(=O)N[C@@H](CO)C(=O)N[C@H](C(=O)N[C@@H](CC(N)=O)C(=O)N[C@H](C(=O)NCC(=O)N[C@@H](Cc1c[nH]cn1)C(=O)N[C@@H](CC(N)=O)C(=O)N[C@H](C(=O)N[C@@H](Cc1ccc(O)cc1)C(N)=O)[C@@H](C)O)C(C)C)[C@@H](C)O
Ratio hCT/hAmylin binding [1]: 59.4 | IC50 [2]: 22.7 nM

B2: N^ε1-[2-[2-[2-[[(4S)-4-carboxy-4-(19-carboxynonadecanoylamino)butanoyl]amino]ethoxy]ethoxy]acetyl]-[Arg17,Pro21,Pro27,His34]-h-amylin (peptide)
peptide: K([AEEA-γGlu-C20 diacid])CNTATCATQRLANFLRHSSPNFGAIPSSTNVGHNTY-NH2
modifications: disulfide 2-7; N-terminus assumed
SMILES: CC[C@H](C)[C@H](NC(=O)[C@H](C)NC(=O)CNC(=O)[C@H](Cc1ccccc1)NC(=O)[C@H](CC(N)=O)NC(=O)[C@@H]1CCCN1C(=O)[C@H](CO)NC(=O)[C@H](CO)NC(=O)[C@H](Cc1c[nH]cn1)NC(=O)[C@H](CCCNC(=N)N)NC(=O)[C@H](CC(C)C)NC(=O)[C@H](Cc1ccccc1)NC(=O)[C@H](CC(N)=O)NC(=O)[C@H](C)NC(=O)[C@H](CC(C)C)NC(=O)[C@H](CCCNC(=N)N)NC(=O)[C@H](CCC(N)=O)NC(=O)[C@@H](NC(=O)[C@H](C)NC(=O)[C@@H]1CSSC[C@H](NC(=O)[C@@H](N)CCCCNC(=O)COCCOCCNC(=O)CC[C@H](NC(=O)CCCCCCCCCCCCCCCCCCC(=O)O)C(=O)O)C(=O)N[C@@H](CC(N)=O)C(=O)N[C@@H]([C@@H](C)O)C(=O)N[C@@H](C)C(=O)N[C@@H]([C@@H](C)O)C(=O)N1)[C@@H](C)O)C(=O)N1CCC[C@H]1C(=O)N[C@@H](CO)C(=O)N[C@@H](CO)C(=O)N[C@H](C(=O)N[C@@H](CC(N)=O)C(=O)N[C@H](C(=O)NCC(=O)N[C@@H](Cc1c[nH]cn1)C(=O)N[C@@H](CC(N)=O)C(=O)N[C@H](C(=O)N[C@@H](Cc1ccc(O)cc1)C(N)=O)[C@@H](C)O)C(C)C)[C@@H](C)O
notes: also called compound 76
IC50 [3]: 17.2 nM | Ratio hCT/hAmylin binding [4]: 80

Continued by falling IC50 [3], values first:

IC50 [3]: 61.3 nM | Ratio hCT/hAmylin binding [4]: 63.4
B4: N^ε1-[2-[2-[2-[[2-[2-[2-[[(4S)-4-carboxy-4-(19-carboxynonadecanoylamino)butanoyl]amino]ethoxy]ethoxy]acetyl]amino]ethoxy]ethoxy]acetyl]-[Arg17,Pro21,Pro27,Arg34 … (peptide)
peptide: K([AEEA-AEEA-γGlu-C20 diacid])CNTATCATQRLANFLRHSSPNFGAIPSSTNVGRNTY-NH2
modifications: disulfide 2-7; N-terminus assumed
SMILES: CC[C@H](C)[C@H](NC(=O)[C@H](C)NC(=O)CNC(=O)[C@H](Cc1ccccc1)NC(=O)[C@H](CC(N)=O)NC(=O)[C@@H]1CCCN1C(=O)[C@H](CO)NC(=O)[C@H](CO)NC(=O)[C@H](Cc1c[nH]cn1)NC(=O)[C@H](CCCNC(=N)N)NC(=O)[C@H](CC(C)C)NC(=O)[C@H](Cc1ccccc1)NC(=O)[C@H](CC(N)=O)NC(=O)[C@H](C)NC(=O)[C@H](CC(C)C)NC(=O)[C@H](CCCNC(=N)N)NC(=O)[C@H](CCC(N)=O)NC(=O)[C@@H](NC(=O)[C@H](C)NC(=O)[C@@H]1CSSC[C@H](NC(=O)[C@@H](N)CCCCNC(=O)COCCOCCNC(=O)COCCOCCNC(=O)CC[C@H](NC(=O)CCCCCCCCCCCCCCCCCCC(=O)O)C(=O)O)C(=O)N[C@@H](CC(N)=O)C(=O)N[C@@H]([C@@H](C)O)C(=O)N[C@@H](C)C(=O)N[C@@H]([C@@H](C)O)C(=O)N1)[C@@H](C)O)C(=O)N1CCC[C@H]1C(=O)N[C@@H](CO)C(=O)N[C@@H](CO)C(=O)N[C@H](C(=O)N[C@@H](CC(N)=O)C(=O)N[C@H](C(=O)NCC(=O)N[C@@H](CCCNC(=N)N)C(=O)N[C@@H](CC(N)=O)C(=O)N[C@H](C(=O)N[C@@H](Cc1ccc(O)cc1)C(N)=O)[C@@H](C)O)C(C)C)[C@@H](C)O
notes: also called compound 95

IC50 [3]: 2.57 nM | Ratio hCT/hAmylin binding [4]: 42.2
B3: N^ε1-[2-[2-[2-(19-carboxynonadecanoylamino)ethoxy]ethoxy]acetyl]-[His14,Arg17,Pro21,Pro27]-h-amylin (peptide)
peptide: K([AEEA-C20 diacid])CNTATCATQRLAHFLRHSSPNFGAIPSSTNVGSNTY-NH2
modifications: disulfide 2-7; N-terminus assumed
SMILES: CC[C@H](C)[C@H](NC(=O)[C@H](C)NC(=O)CNC(=O)[C@H](Cc1ccccc1)NC(=O)[C@H](CC(N)=O)NC(=O)[C@@H]1CCCN1C(=O)[C@H](CO)NC(=O)[C@H](CO)NC(=O)[C@H](Cc1c[nH]cn1)NC(=O)[C@H](CCCNC(=N)N)NC(=O)[C@H](CC(C)C)NC(=O)[C@H](Cc1ccccc1)NC(=O)[C@H](Cc1c[nH]cn1)NC(=O)[C@H](C)NC(=O)[C@H](CC(C)C)NC(=O)[C@H](CCCNC(=N)N)NC(=O)[C@H](CCC(N)=O)NC(=O)[C@@H](NC(=O)[C@H](C)NC(=O)[C@@H]1CSSC[C@H](NC(=O)[C@@H](N)CCCCNC(=O)COCCOCCNC(=O)CCCCCCCCCCCCCCCCCCC(=O)O)C(=O)N[C@@H](CC(N)=O)C(=O)N[C@@H]([C@@H](C)O)C(=O)N[C@@H](C)C(=O)N[C@@H]([C@@H](C)O)C(=O)N1)[C@@H](C)O)C(=O)N1CCC[C@H]1C(=O)N[C@@H](CO)C(=O)N[C@@H](CO)C(=O)N[C@H](C(=O)N[C@@H](CC(N)=O)C(=O)N[C@H](C(=O)NCC(=O)N[C@@H](CO)C(=O)N[C@@H](CC(N)=O)C(=O)N[C@H](C(=O)N[C@@H](Cc1ccc(O)cc1)C(N)=O)[C@@H](C)O)C(C)C)[C@@H](C)O
notes: also called compound 90
